Measurements from patent publication US20140249076A1 (AstraZeneca / MedImmune, published 2014).
One block for each binder: values may come before it. Numbered stars: 1 amine (or outer) side, 2 acyl side, 3 side chain; on linkers, the order of the positions; unused ones are H or OH. Side chains are listed from the residue outwards. Ends that are not written are not given here. γGlu = O=C(O)[C@H](CCC(=O)[*:2])N[*:1]

Experiments:
[1] = target: T1, CGRP receptor (SK-N-MC cell membranes) (UniProt Q16602 23-461; O60894 27-148); experiment: displacement of 125I-human CGRP from SK-N-MC cell membranes
T1 construct: whole, on cells
T1 sequence (Q16602 23-461, chain 1 of 2): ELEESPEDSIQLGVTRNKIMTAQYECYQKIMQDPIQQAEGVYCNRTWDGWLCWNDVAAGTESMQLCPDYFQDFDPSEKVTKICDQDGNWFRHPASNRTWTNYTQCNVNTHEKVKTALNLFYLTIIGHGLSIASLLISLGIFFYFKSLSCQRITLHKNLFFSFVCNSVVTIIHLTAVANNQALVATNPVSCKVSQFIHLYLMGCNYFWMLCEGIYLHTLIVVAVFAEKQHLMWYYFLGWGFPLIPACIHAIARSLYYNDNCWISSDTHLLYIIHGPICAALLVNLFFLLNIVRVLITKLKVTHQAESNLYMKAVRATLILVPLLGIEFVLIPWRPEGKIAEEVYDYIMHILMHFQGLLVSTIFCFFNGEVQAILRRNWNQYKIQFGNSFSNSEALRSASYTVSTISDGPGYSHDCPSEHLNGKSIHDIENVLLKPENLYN
T1 sequence (O60894 27-148, chain 2 of 2): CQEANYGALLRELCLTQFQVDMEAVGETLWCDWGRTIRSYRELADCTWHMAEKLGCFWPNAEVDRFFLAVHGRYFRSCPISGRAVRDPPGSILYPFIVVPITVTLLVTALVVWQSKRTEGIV
Text: Dried glass fiber plates were combined with scintillant and counted on a multiwell Perkin Elmer scintillation counter.

[2] = target: T2, amylin receptor (RNA membranes); experiment: displacement of 125I-rat amylin from RNA membranes
T2 construct: Membrane preparation
Text: Dried glass fiber plates were combined with scintillant and counted on a multi-well Perkin Elmer scintillation counter, as well known in the art.

IC50 [1]: 4450 pM
IC50 [2]: 518 pM
Binder: K([γGlu-C16‑Chain])CNTATCALQRLAQELHRLQTYPRTNVGSNTY-NH2 (ends and bridges not checked, Lys 1 is already present in Cmpd 17) [Cmpd 192 ([K^1ε-(γ-Glu(Nα-C16-Chain))]-Cmpd 17)]

IC50 [1]: 603 pM
IC50 [2]: 137 pM
B1: Cmpd 195 (Kε-(γ-Glu(Nα-C16-Chain))-Cmpd 17) (peptide)
peptide: K([γGlu-C16‑Chain])KCNTATCALQRLAQELHRLQTYPRTNVGSNTY-NH2
modifications: ends and bridges not checked
notes: The description is read as an extra acylated Lys placed before the N-terminus of Cmpd 17

IC50 [1]: 1260 pM
IC50 [2]: 28 pM
B2: Cmpd 17 (peptide)
peptide: KCNTATCALQRLAQELHRLQTYPRTNVGSNTY-NH2
modifications: ends and bridges not checked
notes: Parent peptide of the fatty acid acylated compounds
